{"source": "patent US20210009673A1", "about": "“METHODS FOR REGULATING BREAST CANCERS” (priority 2018, published 2021)", "molecules": {"B1": {"name": "pleiotrophin (protein, UniProt P21246 33-168, looked up)", "Pleiotrophin": "GKKEKPEKKVKKSDCGEWQWSVCVPTSGDCGLGTREGTRTGAECKQTMKTQRCKIPCNWKKQFGAECKYQFQAWGECDLNTALKTRTGSLKRALHNAECQKTVTISKPCGKLTKPKPQAESKKKKKEGKKQEKMLD"}}, "type_in_all_cases": "cell-based, human", "key": {"[1]": {"tested_on": "Src", "assay": "phospho-Src tyrosine 416 Western blot in PTN-stimulated U87MG cells", "settings": "50 ng PTN/ml for 5, 10, 15 minutes"}, "[2]": {"tested_on": "EGFR", "assay": "tyrosine phosphorylation of EGFR in HUVS cells", "protocol": "FIG. 10: FIG. 10 illustrates: (A), HUVS cells were stimulated with PTN for 2, 5, and 15 minutes. Cell lysates were used to immunoprecipitate EGFR and the immunoprecipitates were analyzed in Western blots probed with anti-phosphotyrosine antibodies. In (B), Lysates from PTN-stimulated HUVS cells that express EGFR were incubated with GST-RPTPβ/ζ D1, GST-RPTPβ/ζ D1 (C1932S), and GST-RPTPβ/ζ D1 (D1900A), a “substrate trap” mutant, which captures the substrate phosphoryl-intermediate in the active site of RPTPβ/ζ with high affinity and specificity. The proteins captured were analyzed in Western blots probed with anti-EGFR antibodies and separately with anti-GST antibodies. In (C), HUVS cells were co-transfected with a full-length EGFR and the vector pC4-Fv1E encoding the Fv domain of FKBP12 needed for enforced dimerization induced by AP20187 (Clackson, Yang et al. 1998) in frame with the intracellular domain of RPTPβ/ζ. AP20187 (2 μM) enforced homodimerization of RPTPβ/ζ and stimulated increase in tyrosine phosphorylation of EGFR 2′, 5′, 10′, and 20′ after stimulation compared with control cells transfected with EGFR alone. (D) A retroviral vector (pSM2) encoding shRNA to “knock down” RPTPβ/ζ was tested in HUVS cells that express endogenous RPTPβ/ζ and EGFR. The cells were stimulated with PTN and cell lysates were used to prepare immunoprecipitates with anti-EGFR antibodies and the immunoprecipitates analyzed in Western blots probed with anti-phosphotyrosine antibodies.\nCell lysates prepared in a lysis buffer containing 50 mM Tris, 150 mM NaCl pH 7.5, 1% NP40, 0.25% sodium deoxycholate, 0.1% SDS, Complete EDTA-free Protease Inhibitor Cocktail (Roche, Indianapolis, Ind.), and 2 mM sodium orthovanadate were pre-cleared by incubation with 2 μg antibodies followed by one hour incubation with protein G-agarose beads. The beads were washed 4 times in the same lysis buffer, eluted in loading buffer containing 240 mM Tris pH 6.8, 40% glycerol, 20% SDS, 2.5% β-mercaptoethanol and 0.01% bromophenol blue and analyzed in Western blots probed with different antibodies as individually described.\nPI3K also is activated by an activated Epidermal Growth Factor Receptor (EGFR). We therefore investigated the possibility EGFR is implicated in the translocation of β-catenin to nucleus in PTN-stimulated cells. HUVS were stimulated with PTN for 2, 5, and 15 minutes. Lysates from these cells were immunoprecipitated with anti-EGFR antibodies and the immunoprecipitates were analyzed in Western blots probed with anti-phosphotyrosine antibodies. Tyrosine phosphorylation of EGFR was increased about 5.8-fold at two minutes after HUVS cells were stimulated with PTN, about 11-fold at 5 minutes, and about 5-fold 15 minutes after stimulation with PTN (FIG. 10A).\nTo establish whether phosphorylation of EGFR is dependent on enforced dimerization of RPTPβ/ζ, which is the consequence of the interaction of PTN with RPTPβ/ζ, HUVS cells were then co-transfected with a full-length EGFR and the vector pC4-Fv1 E. The vector pC4-Fv1 E encodes the Fv domain of FKBP12 in frame with the intracellular domain of RPTPβ/ζ; it effectively enforces dimerization of RPTPβ/ζ when cells are stimulated with AP20187. AP20187 (2 μM) was added to HUVS cells that expressed full-length EGFR and pC4-Fv1 E as above. […]"}, "[3]": {"tested_on": "GSK3β", "assay": "phosphorylation of GSK3β serine 9 in PTN-stimulated HUVS cells", "settings": "5, 10 and 20 minutes after PTN", "protocol": "(§1) FIG. 11: FIG. 11 illustrates: human umbilical vein stromal cells not stimulated or stimulated with 50 ng/ml of PTN for 2, 5, 10 or 20 minutes were used to prepare cell lysates that were analyzed in Western blots probed with anti-phospho threonine 308 Akt (panel A), anti-phospho serine 473 Akt (panel B), anti-phospho-serine 9 GSK3β (panel C), anti-phospho-serine 33, 37 and […] β-catenin (panel D) or anti-actin antibodies (panel E). Akt was immunoprecipitated from those lysates using anti-Akt antibodies, incubated with a fusion peptide containing the 20 N-terminal amino acids of GSK3β and analyzed in Western-blots probed using anti-phospho-serine 9 GSK3β antibodies (panel F).\nLysates from HUVS cells stimulated with PTN as above were then analyzed in Western blots probed with anti-phosphoserine 9 GSK3β antibodies. GSK3β is known to be phosphorylated by Akt at serine 9 and to inactivate its catalytic activity. […]\nThe association of adaptor proteins that associate with specific phosphorylated sites in activated EGFR are responsible for the activation of phosphatidyl-inositol 3-kinase (PI3K). […] The cells were stimulated with PTN for 2, 5, 10, and 20 minutes, cell lysates were prepared, and the lysates were analyzed in Western blots probed with anti-phospho-Akt (Ser473), anti-phospho-GSKβ (Ser9), and anti-phospho-β-catenin (Thr42) antibodies. […]"}, "[4]": {"tested_on": "β-catenin", "assay": "phosphorylation of serines 33, 37 and threonine 41 in β-catenin in HUVS cells", "settings": "2 minutes after PTN", "protocol": "as §1\nA key function of activated GSK3β in the pathway of β-catenin translocation into the nuclei is to phosphorylate β-catenin serines 33, 37 and threonine 41. […] The levels of phosphorylation of serine 33, 37 and threonine 41 in β-catenin were therefore measured in Western blots of lysates from PTN-stimulated cells probed with anti-β-catenin antibodies that recognize phosphoserines 33, 37 and threonine 41. […] In the control study, β-catenin phosphorylated in serines 33, 37 and threonine 41 was readily detected when the cells are not stimulated with PTN. […]"}}}
{"molecule": "B1", "values": [{"measurement": "tyrosine phosphorylation of Src tyrosine 416", "setting": "[1]", "value": "not increased"}, {"measurement": "increase in tyrosine phosphorylation of EGFR", "setting": "[2]; 5 minutes after PTN", "value": "about 11 fold"}, {"measurement": "increase in tyrosine phosphorylation of EGFR", "setting": "[2]; 15 minutes after PTN", "value": "about 5 fold"}, {"measurement": "tyrosine phosphorylation of EGFR", "setting": "[2]; RPTPβ/ζ knocked down with shRNA", "value": "failed to stimulate"}, {"measurement": "increase in tyrosine phosphorylation of EGFR", "setting": "[2]; cells transfected with pSM2 control vector", "value": "~5", "unit": "fold"}, {"measurement": "increase in tyrosine phosphorylation of EGFR", "setting": "[2]; two minutes after PTN", "value": "about 5.8 fold"}, {"measurement": "GSK3β serine 9 phosphorylation", "setting": "[3]", "value": "striking increase"}, {"measurement": "phosphorylation of serines 33, 37 and threonine 41 in β-catenin", "setting": "[4]", "value": "sharply decreased"}]}
